This is an account of results in the nanobody polyreactivity screen of Harvey et al. (2022).

A short description of this data set: yeast display, Sf9 membrane polyspecificity reagent, FACS + sequencing; frameworks hold sequencing errors. The method in brief:
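Nanobodies from a synthetic yeast display library (Saccharomyces cerevisiae BJ5465), induced 36–48 hours with galactose, were stained 1 hour at 4 °C with 10% biotinylated, detergent-solubilized Sf9 membrane reagent, enriched on streptavidin microbeads, then FACS-sorted. Anti-HA (expression) and streptavidin (reagent binding) fluorescence set low and high (top ~1%) gates. Polyreactivity labels come from the gate of origin. Genes were colony-PCR amplified, MiSeq 2 × 250 sequenced and filtered by CDR length.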
For “QVQLVESGGGLVQAGGSLRLSCAASGSTLSQNAMGWYRQAPGKEREFVADISGSGDSTYYADSVKGRFTISRDNAKNTVYLQMNSLKPEDTAVYYCAARSLVQDHAYGYNYWGQGTQVTVSS”, the “polyreactivity (PSR sort gate)” value is given as “low polyreactivity”. Under “QVQLVESGGGLVQAGGSLRLSCAASGSTLSRYTMGWYRPEPGKERELVAAIRSSGGSTYYADSVKGRFTISRDNAKNTVYLQMNSLKPEDTAVYYCARTQQRTTERVHWIRYYYWGQGTQVTVSS” stands “low polyreactivity”.

For “QVQLVESGGGLVQAGGSLRLSCAASGSTLSSYAMGWYRPAPGTERELGAVISGGGRTYYADSVKGRFTISRDNAKNTVYLQMNSLKPEDTAVYYCAAVTFSLGYRYYYWGQGTQVTVSS”, the “polyreactivity (PSR sort gate)” value is “high polyreactivity”. The value for “QVQLVESGGGLVQAGGSLRLSCAASGSTLSYNAMGWYRPATGKERELVAAISWSDGGTYYADSVKGRFTISRDNAKNTVYLQMNSLKPEDTAVYYCNAESQWSYYFIYDYWGQGTQVTVSS” was “high polyreactivity”; that for “QVQLVESGGGLVQAGGSLRLSCAASGSTLSYYAMGWYRPAPGKDRELVAAISFSGGITYYADSVKGRFTISRDNAKNTVYLQMNSLKPEDTAVYYCNAEYQVYRAYVIWYDYWGQGTQVTVSS” was “high polyreactivity”; that for “QVQLVESGGGLVQAGGSLRLSCAASGSTLTDYAMGWYRQAPGKERELVAAITSDGDSTNYADSVKGRFTISRDNAKNTVYLQMNSLKPEDTAVYYCAAQGKYHYYVPAYEYWGQGTQVTVSS” was “low polyreactivity”. Under “QVQLVESGGGLVQAGGSLRLSCAASGSTLTLYAMGWYRQARGKERELVAAIDWTGGSTYYADSVKGRFTISRDNAKNTVYLQMNSLKPEDTAVYYCAAHSFTEGYWYEYWGQGTQVTVSS” stands “high polyreactivity”; under “QVQLVESGGGLVQAGGSLRLSCAASGSTLTRNDIGWYRQAPGKERELVAAITFSGSDTYYADSVKGRFTISRDNAKNTVYLQMNILKPEDTAVYYCAAEYGGYSIYLFIGRYYWGQGTQVTVSS”, “low polyreactivity”.

In the case of “QVQLVESGGGLVQAGGSLRLSCAASGSTLTSNAMGWYRQAPGKERELVAAIRSGGSTNYADSVKGRFTISRDNAKNTVYLQMNSLKPEDTAVYYCNKDVLWQGYGYSRVSYDYWGQGTQVTVSS”, the “polyreactivity (PSR sort gate)” value is “low polyreactivity”. Under “QVQLVESGGGLVQAGGSLRLSCAASGSTLVDYAMGWYRQAPGKERELVATISFRGGSTYYADSVKGRCTISRDNAKNTVYLQMNSLKPEDTAVYYCAAEYGPSLYYYYGHAAYAYGYWGQGTQVTVSS” stands “low polyreactivity”; under “QVQLVESGGGLVQAGGSLRLSCAASGSTLVDYAMGWYRQAPRKERELVATISFRGGSTYYADSVKGRFTISRDNAKNTVYLQMNSLKPEDTAVYYCAREYGDGYEYWGQGTQVTVSS”, “low polyreactivity”. Regarding “QVQLVESGGGLVQAGGSLRLSCAASGSTLVGNAMGWYRQAPRKERELVATISKRSGSTYYADSVKGRFTISRDNAKNTVYLQMNSLKPEDSAVYYCNADDVRRRAYRIGSYWGYDYWGQGTQVTVSS”, the “polyreactivity (PSR sort gate)” value is given as “low polyreactivity”. Under “QVQLVESGGGLVQAGGSLRLSCAASGSTLVGNTMGWYRQSPGKERELVAAITGVGSTNYADSVKGRFTISRDNAKNTVYLQMNSLKPEDTAVYYCAAQYSYTYIVSYLYDMDYWGQGTQVTVSS” stands “low polyreactivity”; under “QVQLVESGGGLVQAGGSLRLSCAASGSTLVIYAMGWYRQAPGKERELVAAISRGGTTYYADSVKGRFTISRDNAKNTVYLQMNSLKPEDTAVYYCAADARVKRYYFRKSGYWGQGTQVTVSS”, “high polyreactivity”; under “QVQLVESGGGLVQAGGSLRLSCAASGSTLVNNAMGWDRQAPGKEREWVAAITFSGGTTYYADSVKGRFTISRDNAKNTVYLQMNSLKPEDTAVYYCAAEIWLEYVGYDYWGQGTQVTVSS”, “high polyreactivity”. Under “QVQLVESGGGLVQAGGSLRLSCAASGSTLVRYALGLSRQAPGKERELVAAISRSGSSTYYADSVKGRFTISRDIAKNTVYLQMNSLKPEDTAVYYCATDRYPTTPYYNYRFGYWGQGTQVTVSS” stands “high polyreactivity”. “QVQLVESGGGLVQAGGSLRLSCAASGSTLVRYAMGWYRQAPGKEREFVAAISWTGGSTYYADSVKGRFTISRDYAKNTVYLQMNSLKPEDTAVYYCSAEYFRGPSYSYWGQGTQVTVSS”: the “polyreactivity (PSR sort gate)” value was “high polyreactivity”.

Turning to “QVQLVESGGGLVQAGGSLRLSCAASGSTLVTYTMGWYRQAPGKERELVASISWRGGSTYYADSVKGRFTISRDNAKNTVYLQMNSLKPEDTAVYYCNAVYYLWDYDYWGQGTQVTVSS”, the “polyreactivity (PSR sort gate)” value was “low polyreactivity”. For the sequence “QVQLVESGGGLVQAGGSLRLSCAASGSTLYAYAVGWYRQAPGKERELVAAIRTGGSTYYADSVKGRFTISRDNAKNTVYLQMNRLIPEDTAVYYCAADHGYQYGYWGQGTQVTVSS”, the “polyreactivity (PSR sort gate)” value is reported as “low polyreactivity”.

As for “QVQLVESGGGLVQAGGSLRLSCAASGSTLYRNAMGWYRQAPGKEREFVAAISWSGGSTYYADSVKGRFTISRDNAKNTVYLQMNSLKPEDTAVYYCNARGPTVYETHNYWGQGTQVTVSS”, the “polyreactivity (PSR sort gate)” value is “low polyreactivity”.

Take “QVQLVESGGGLVQAGGSLRLSCAASGSTLYRYAMGWYRQAPGKERELVAAISSAGSTHYADSVKGRFTISRDNAKNNVYLQMKSLKPEDTAVYYCNAKGYLHRSRYDYWGQGTQVTVSS”: the “polyreactivity (PSR sort gate)” value is on record as “high polyreactivity”. The value for “QVQLVESGGGLVQAGGSLRLSCAASGSTLYSYAMGWYRQAPGKERELVAAIRRDSGRTYYADSVKGRFTISRDNAKNTVYLQMNSLKPEDTAVYYCAVRKQYSGRYYRAYDYWGQGTQVTVSS” was “high polyreactivity”; that for “QVQLVESGGGLVQAGGSLRLSCAASGSTMGRYAMGWYRQAPGKERELVASITWSDDSTYYADSVKGRFTISRDNAKNTVYLQMNSLKPEDTAVYYCAAAGNLYTYRFYYWGQGTQVTVSS” was “low polyreactivity”; that for “QVQLVESGGGLVQAGGSLRLSCAASGSTMLDYAMGWYRQAPGKERELVAAISWSGGSTRYADSVKGRFTISRDNAKNTVFLQMNSLKPEDTAVYYCAATGFSYRYFQTRDYWGQGTQVTVSS” was “high polyreactivity”. On to “QVQLVESGGGLVQAGGSLRLSCAASGSTRYWYAMGWYRQAPGKEREFFAGISIGGRTNYADSVKGRFTISRDNAKNTVYLQMNSLKPEDTAVYYCNAENTYVGSRYRPYNYWGQGTLVTVSS”, for which the “polyreactivity (PSR sort gate)” value is listed as “low polyreactivity”. Take “QVQLVESGGGLVQAGGSLRLSCAASGSTSAWYAMGWYRQAPGKERQLVATISSRGGSTYYADSVKGRFTISRDNAKNTVYLQMNSLKPEDTAVYYCAARIGATYWVDWTHRAYDYWGQGTQVTVSS”: the “polyreactivity (PSR sort gate)” value is “high polyreactivity”. The value for “QVQLVESGGGLVQAGGSLRLSCAASGSTSCIYAMGCYRQAPGKERELVAAISGSGVSTYYADSVKGRFTISRDNAKNTVYLQMNSLKPEDTAVYYCAAGYYGNGVFEYDYWGQGTQVTVSS” was “low polyreactivity”.

For the sequence “QVQLVESGGGLVQAGGSLRLSCAASGSTSCSNAMGWSRQAPGKERELVAAITTGASTYYADSVKGRFTISRDNAKNTVYLQMNSLKPEDTAVYYCAADPWVLWSYYYWGQGTQVTVSS”, the “polyreactivity (PSR sort gate)” value is listed as “low polyreactivity”. Under “QVQLVESGGGLVQAGGSLRLSCAASGSTSDINAMGWYRQAPGKERELVAVITDSSNTDYADSVKGRFTISRDNAKNTVYLQMNSLKPEDTAVYYCAADRDEPDPYDYWGQGTQVTVSS” stands “low polyreactivity”.

For the sequence “QVQLVESGGGLVQAGGSLRLSCAASGSTSGIYAMGWYRQAPGKERELVAAIDTSGGSTYADSVKGRFTISRDNAKNTVYLQMNSLKPEDTAVYYCAKPFSSNSWSHGYWGQGTQVTVSS”, the “polyreactivity (PSR sort gate)” value was “low polyreactivity”. The value for “QVQLVESGGGLVQAGGSLRLSCAASGSTSGIYAMGWYRQAPGKERELVARINSGGSTYYADSVKGRFTISRDNAKNTVYLQMNSLKPEDTAVYYCNRVPNKYGRPIDSRWRGDYWGQGTQVTVSS” was “low polyreactivity”. Take “QVQLVESGGGLVQAGGSLRLSCAASGSTSGKNAMGWYRQAPGKERELVAVITYSGSRTYYADSVKGRFTISRDNAKNTVYLQMNSLKPEDTAVYYCAAVGGGVSFRGNYWGQGTQVTVSS”: the “polyreactivity (PSR sort gate)” value is recorded as “high polyreactivity”. The value for “QVQLVESGGGLVQAGGSLRLSCAASGSTSGRNVMGWYIQAPGKERELVAAISSRGGSTYYADSVKGRFTISRDNAKNTVYLQMNSLKPEDTAVYYCAARYGAYSGYDYWGQGTQVTVSS” was “high polyreactivity”.

Turning to “QVQLVESGGGLVQAGGSLRLSCAASGSTSHQYAMGWYRQAPGKERELVAAISSRAGSTYYADSVKGRFTISRDNAKNTVYLQMNSLKPEDTAFYYCAADADSWKWGYDYWGQGTQVTVSS”, the “polyreactivity (PSR sort gate)” value was “low polyreactivity”.

Take “QVQLVESGGGLVQAGGSLRLSCAASGSTSLINVMGWYRQAPGKERELVAAISSSDGSTYYADSVKGRFTISRDNAKNTVYLQMNSLKPEDTAVYYCNADYYGYYGLMGYWGQGTLVTVSS”: the “polyreactivity (PSR sort gate)” value is recorded as “low polyreactivity”. Under “QVQLVESGGGLVQAGGSLRLSCAASGSTSLSYVMGWYRQAPGKERELVASITSSGGSTYYADSVKGRFTISRDNAKNTVYLQMNSLKPEDTAVYYCNARSYIDPFSPTSYYRYYWGQGTQVTVSS” stands “high polyreactivity”. As to “QVQLVESGGGLVQAGGSLRLSCAASGSTSMSYVKGWYRQAPGKERELVASITSSGGSTYYADSVKGLFTISRDNAKNTVYLQMNSLKPEDTAVYYCNARSYIYPFSPTSYYRYYWGQGTQVTVSS”, the “polyreactivity (PSR sort gate)” value is reported as “high polyreactivity”. The value for “QVQLVESGGGLVQAGGSLRLSCAASGSTSPAYAMGWYRQAPGKERELVAVITGSGASTYYADSVKGRFTISRDNAKNTVYLQMNSMKPEDTAVYYCAADVGFGVVFYDYWGQGTQVTVSS” was “low polyreactivity”. Under “QVQLVESGGGLVQAGGSLRLSCAASGSTSPGYAMGWYRQAPGKERELVAAITWNGGSTYYADSVKGRFTISRDNAKNTVYLQMNSLKPEDTAVYYCNKLSGYGWRSYGYWGQGTQVTVSS” stands “high polyreactivity”.

Take “QVQLVESGGGLVQAGGSLRLSCAASGSTSPRNAMGWYRQAPGKERELVAAISSGGRTNYADSVKGRFTISRDNAKNTVYLQMNSLKPEDTAVYYCAAEVQSTYWGQGTQVTVSS”: the “polyreactivity (PSR sort gate)” value is recorded as “low polyreactivity”.
